Source: article PMC8448731 (Nature Communications, 2021)

Experiments:
[1] = biological target: SARS-CoV-2 spike RBD with C-terminal 3xFlag tag and N-terminal signal peptide of the spike (RBD-3xFlag) (SARS-CoV-2, Wuhan-Hu-1 type (wild type), UniProt P0DTC2)
[2] = biological target: recombinant RBD (ThermoFisher, RP-87678) (SARS-CoV-2, Wuhan-Hu-1 assumed, UniProt P0DTC2); assay: BLI; details: one partner purified

Binder | binding result [1] | Kd [2]
SR4_c1 (VHH) VHH: EVQLVESGGGLVQAGDSLRLSCAASGFQLSCYCMGWFRQAPGKEREFVASITQHAFRTYYADSVKGRFTISRDDARNTVYLQMNSLKPEDTAVYYCAAAETPNILVHENYWGQGTQVTVSS | binds | 
SR4_t9 (VHH) VHH: KVQLVVSGRVLVQAGDSLRLSCAATGFQLSCYCVGWFRQAPGKELEFVASITQHAFRTYYADSVKGRFTISRDDARNTVYLQMNSLKPEDTAVYYCAAAETPNILVHESYWGQGTQVTVSS | binds | 
SR4_f3 (VHH) VHH: EVQLVVSGRGLVQAGDSLRLSCAASGFQLSCYCVGWFRQAPGKEREFVASITQHAFRTYYADSVKGRFTISRDDARNTVYLQMNSLKPEDTAVYYCAAAETPNILVYENYWGQGTQVTVSS | binds | 
SR4_t4 (VHH) VHH: EVQLVVSGRGLVQAGDSLRLSCAASGFQLSCYCVGWFRQAPGKEREFVASITQHAFRTYYADSVKGRFTISRDDARNTVYLQMNSLKPEDTAVYYCAAAETPNILVHENYWGQGTQVTVSS | binds | 
SR4_t6 (VHH) VHH: EVQLVVSGRVLVQAGDSLRLSCAASGFQLSCYCVGWFRQAPGKEREFVASITQHAFRTYYADSVKGRFTISRDDARNTVYLQMNSLKPEDTAVYYCAAAETPNILVHESYWGQGTQVTVSS | binds | 
SR4_t13 (VHH) VHH: KVQLVVTGRVLVQAGDSLRLSCVATGFQLSCYCVGWFRQAPGKELEFVASITQHAFRTYYADSVKGRFTISRDDAQNTVYLQMNSLEPEDTAVYYCAAAETPNILVHESYWGQGTQVTVSS | binds | 
SR1_t2 (VHH) VHH: EVRLVESGGGLVLAGDSLRLSCAASGKTGRSVIMGWFRQAPDKEREFVATITRGDDTTNYADSVKGRFTISRDDARNTVYLQMNSLKPEDTAVYYCAAVYFVNDCIVDYWGQGTQVTVSS | binds | 
SR2_c3 (VHH) VHH: EVQLVESGGGLVQAGDSLRLSCAASGAFSSNVFMGWFRQAPGKEREFVASITPHHAVTDYADSVRGRFSISADSAKNTVYLQMNSLKPEDTAVYYCAAAIYRNATVLDYWGQGTQVTVSS | binds | 
SR2_c4 (VHH) VHH: EVQLVESGGGLVQAGDSLRLSCAASGAFSSNVFMGWFRQAPGKEREFVASITPHHAVTDYADSVRGRFSISADSAKNTVYLQMNSLKPEDTAVYYCAAAIYCNATVLDYWGQGTQVTVSS | binds | 
SR2_t5 (VHH) VHH: QVQLVESGGGLVQAGDSLRLSCAASGAFSSNVFMGWFRQAPGKEREFVASITPHHAVTDYADSVRGRFSISADTAKNTVYLQMNSLKPEDTAVYYCAAAIYRNATVLDYWGQGTQVTVSS | binds | 
SR6_f3 (VHH) VHH: QVQLVVSGGGLVQAGDSLRLSCAASGDCHVLWRMGWFRQAPGKEREFVAAISLDGLFTNYADSVRGRFSISADSAENTVYLQMNSLKPEDTAVYYCAAMPFFDYWGQGTQVTVSS | binds | 
SR6_t5 (VHH) VHH: QVQLVVSGGGLVQAGDSLRLSCAASGDCHVLWRMGWFRQAPGKEREFVAAISLDGQFTNYADSVRGRFSISADSAKNTVYLQMNSLKPEDTAVYYCAALPFLDYWGQGTQVTVSS | binds | 
GST-tagged SR6v15 (VHH, not shown: GST, C-terminal, kept) VHH: EVQLVESGGGLVQAGDSLRLSCAASGDSYILWRMGWFRQAPGKEREFVAAISLDGQFTNYADSVRGRFSISADSAKYTVYLQMNSLKPEDTAVYYCAALPFLDYWGQGTQVTVSS |  | 2.18 nM
SR6_t6 (VHH) VHH: QVQLVVSGGGLVQAGDSLRLSCAASGDCHVLWRMGWFRQAPGKEREFVAAISLDGQFTNYADSVRGRFSISADSAENTVYLQMNSLKPEDTAVYYCAALPFLDYWGQGTQVTVSS | binds | 
SR6_t9 (VHH) VHH: QVQLVVSGGGLVQAGDSLRLSCTASGDCHVLWRMGWFRQAPGKELEFVAAISLDGQFANYADSVRGRFSISADSAENTVYLQMNSLKPEDTAVYYCAALPFLDYWGQGTQVTVSS | binds | 
SR12_f3 (VHH) VHH: QVQLVVSGGGLVQAGDSLRLSCAASGAIVHVFAMGWFRQAPGKEREFVASINLDNDATNYADSVKGRFTISRDDARNTVYLQMNSLKPEDTAVYYCNATIFMDSDLGDYWGRGTQVTVSS | binds | 
SR12_t6 (VHH) VHH: QVQLVVSGGGLVQAGDSLRLSCAASGAIVHVFAMGWFRQAPGKEREFVASINLDNDVTNYADSVKGRFTISRDDARNTVYLQMNSLKPEDTAVYYCNATIFTDSGLGDYWGRGTQVTVSS | binds | 
